Biological target: EGR1 (UniProt P18146 1-543)
Assay: EMSA

EGR1, sequence (P18146 whole entry): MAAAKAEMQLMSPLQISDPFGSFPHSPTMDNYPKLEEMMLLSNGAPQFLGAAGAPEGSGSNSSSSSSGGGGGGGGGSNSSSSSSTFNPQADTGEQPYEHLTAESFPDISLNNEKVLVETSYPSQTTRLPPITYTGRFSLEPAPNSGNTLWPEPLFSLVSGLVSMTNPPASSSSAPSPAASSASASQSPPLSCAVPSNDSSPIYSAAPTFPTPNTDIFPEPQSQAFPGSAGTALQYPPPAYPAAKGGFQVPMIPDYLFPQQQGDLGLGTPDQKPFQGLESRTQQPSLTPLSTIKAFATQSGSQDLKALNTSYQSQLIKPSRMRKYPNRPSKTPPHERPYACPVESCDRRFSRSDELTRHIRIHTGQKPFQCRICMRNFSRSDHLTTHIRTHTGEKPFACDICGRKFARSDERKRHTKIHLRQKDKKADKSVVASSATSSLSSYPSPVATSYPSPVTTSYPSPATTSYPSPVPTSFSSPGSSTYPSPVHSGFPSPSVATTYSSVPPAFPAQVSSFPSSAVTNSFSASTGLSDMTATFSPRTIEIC

B1: FAP promoter WT -225~-205 (dsDNA)
DNA 1: CAAGAACGCCCCCAAAATCT
DNA 2: AGATTTTGGGGGCGTTCTTG
  binding result: binds

— article PMC2880831
